Measurements reported in patent publication US20190048095A1 (BIO THERA SOLUTIONS, published 2019).

B1: Batansine-0806 (anti-TROP2 antibody BAT0806 conjugated with 3AA-MDC) (antibody)
light: DIQLTQSPSSLSASVGDRVSITCKASQDVSIAVAWYQQKPGKAPKLLIYSASYRYTGVPDRFSGSGSGTDFTLTISSLQPEDFAVYYCQQHYITPLTFGAGTKVEIKRTVAAPSVFIFPPSDEQLKSGTASVVCLLNNFYPREAKVQWKVDNALQSGNSQESVTEQDSKDSTYSLSSTLTLSKADYEKHKVYACEVTHQGLSSPVTKSFNRGEC
heavy: not shown
modifications: 3AA-MDC (batansine maytansinoid-linker) on cysteine thiols freed by partial TCEP reduction; positions not given
B2: BAT0806-CL2A-SN-38 (anti-TROP2 antibody BAT0806 conjugated with CL2A-SN-38) (antibody, human IgG1, kappa)
light: B1 light
heavy: not shown
modifications: CL2A-SN-38 on cysteine thiols freed by TCEP reduction; positions not given
B3: Batansine-0807 (anti-TROP2 antibody BAT0807 conjugated with 3AA-MDC) (antibody, human IgG1, kappa)
light: B1 light
heavy: not shown
modifications: 3AA-MDC on site-mutated (engineered) cysteine(s); position not printed for this antibody
B4: Batansine-0808 (anti-TROP2 antibody BAT0808 conjugated with 3AA-MDC) (antibody, human IgG1, kappa)
light: B1 light
heavy: not shown
modifications: 3AA-MDC on site-mutated (engineered) cysteine(s); position not printed for this antibody; glycan with fucose content of 0-5%

Experiments:
[1] = molecular target: T1, TROP2 (TACSTD2), on TROP2 positive human tumor cell lines MDA-MB-468, A431 and N87 (human, UniProt P09758 27-323); assay: cell-based or functional assay
T1 sequence (looked up): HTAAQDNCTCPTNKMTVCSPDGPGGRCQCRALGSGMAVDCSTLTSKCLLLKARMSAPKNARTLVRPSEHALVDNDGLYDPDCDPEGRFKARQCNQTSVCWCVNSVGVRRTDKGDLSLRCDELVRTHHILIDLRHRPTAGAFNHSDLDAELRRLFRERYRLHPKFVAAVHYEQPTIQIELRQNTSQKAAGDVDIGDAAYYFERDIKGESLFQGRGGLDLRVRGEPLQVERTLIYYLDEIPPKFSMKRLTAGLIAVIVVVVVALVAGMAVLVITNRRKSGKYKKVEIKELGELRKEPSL

[2] = molecular target: T1, TROP2 (TACSTD2), on TROP2 positive …; assay: cell-based or functional assay; remark: listed apart in the source

Binder | EC50, proliferation inhibition of A431 cells (CCK8, 72 h) [1] | EC50, proliferation inhibition of MDA-MB-468 cells (CCK8, 72 h) [1] | EC50, proliferation inhibition of N87 cells (CCK8, 72 h) [1] | EC50 (nM), synergistic ADCC, A431 with PBMC (PBMC cell:target cell 10:1) [2] | EC50 (nM), cell proliferation, A431 [2] | EC50 (nM), cell proliferation, MDA-MB-468 [2] | EC50 (nM), cell proliferation, N87 [2] | EC50 (nM), synergistic ADCC, A431 with PBMC (PBMC cell:target cell 5:1) [2]
B1 | 0.53 nM | 3.21 nM | 0.34 nM | 0.006 nM |  |  |  | 
B2 |  |  |  |  | 1.26 nM | 1.84 nM | 1.84 nM | 0.143 nM
B3 | 1.73 nM | 2.89 nM | 0.77 nM | 0.011 nM |  |  |  | 
B4 | 1.53 nM | 5.61 nM | 1.47 nM | 0.001 nM | 2.89 nM | 1.95 nM | 0.56 nM | 
